Assay: label from the status in PepcDB records
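Further: failed if final PepcDB status was selected cloned or expressed and not failed if soluble or beyond.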

Sequence | protein production
MNVELFKKFSEKVEEIIEAGRILHSRGWVPATSGNISAKVSEEYIAITASGKHKGKLTPEDILLIDYEGRPVGGGKPSAETLLHTTVYKLFPEVNAVVHTHSPNATVISIVEKKDFVELEDYELLKAFPDIHTHEVKIKIPIFPNEQNIPLLAKEVENYFKTSEDKYGFLIRGHGLYTWGRSMEEALIHTEALEFIFECELKLLSFHS | not failed
MVWTGLLIGVLFGVILQRGRICFNSAFRDVLIFKDNYLMRLAALTLGLESITLLIFAQAGIITLNPKPLNWIGNIIGGFIFGMGMVLAGGCASGVTYRTGEGMTTAWFAALAYALTAHATKKGLFSGWIKWLSNYTVTVSNTNPVYAPKTGPTIATVLGISPWIASIIFLALMLWYAFGVKNKSQRPSKLNWIAASVLIAILAPIAWWASASTGRNYGLGITGGWINLVSVYANNASLNWEGAEILGIIIGAAISAIAGKEFKLRMPKNPKTYAQVLLGGFLMGFGAVTAGGCNIGHFLTGVPTLAISSIVASIFFILGNWTMAWFLFGRQK | failed
MDKQQRGIQVIRIWLGVTMLIHGVMKVTSLEDTLAFFASIGLPSLFVYGVAAIELIGGLFMIIGFLIPLVSVGFIAVLVGAIFSFGLASGFSGYEYELFLAITSLAILVSYADKKYLTLKLYF | failed
MFLEIAKVYLQGLGLASITVILVGIIWVFWRAKKNIDKTARERQSVLYDVLLIALMTAPILAFAFVAIILMIKA | failed
MTQVSIIVPVLNEESTIHSAVSRLCRDFPDCELIVVDGGSTDATAELAALHATVIGSERGRAKQMNEGARHASGGILWFIHADTAIEPEALGQIRSVLADPAVVAGGLTLRFDRRTPALNYLAWTSNARARRLHHIFGDQAMFIRRTAFDELGGFPDLAIMEDLEMSRRLHRRGPLRLLPATSTASSRRLTAHGTWRMIAFMQYLKLLYFAGADPEAIRARYTAGPRLFPKRNPATLEHHHHHH | failed
MNSKFKGIIFMILASAAFATMNLLSKLAVGVNSYQKTFLTNVVATLIVCFIIAYKKGSFFGKKESRKYLLVRGVTGTLSILTNYYALDKMFLSDATILTKLAPFFTIIFSYLLISEKITKKQFTLLIVAFAGSLFVIKPQFSTAIIPSLIGVASAAFAGIAYTMIRVIGDKEDFWTIILSFTSIATIVMLPSMFMNTDNLTLQNILLLVSAGIAFTLGQVALTIAYKNAPASEISMYDYIGLIIAAIYGFMFFKEIPDFLSFTGYIIIVGSSLLNILGNKKTSNKEINEDSSLVSTD | failed
MAGFISNFFGVGDSDSQYEEPTEASQAAAPTESATNTRSTPKVVPMQGGKSVNSKIALFEPKIYSDVKEIATQLLKNQAVIINFDHVDDEMARRIVDFLTGTVFAINGEIERIGDEIFLCIPENYEVSGSTTSQFDTSKLLEHHHHHH | not failed
PAGVMIADAASGKLVLTNEQAKQILRYQFEDSLELKEYAPVTPFAAFRCDGQPYDPYEYPLPRSLLTGEVISQEEMLLRWEDNSHIFISVNSAPILDSQGQIAAAAIVFQDVTERKHLESELQQREQEFKMVAENAP | failed
KFDSDIDEVVYGSRLIGSDPDLVLHGGGNTSVKTTERDHAGRIISVLRVKNSGSNLGTIDSRGFTGIRMDDALAAAKIDKMTDEAMVDYLKKSMVNPSEPSPSVETFLHAFLPYKFVMHSHADAILSITNTDLPSDQIAKILGNVVVLPYIPPGFTLAKEVMNCFKKGIDGIVLRKHGLLTFGDTGKEAYDRHINIVSRAENFIREKTDGK | not failed
SGARRQALIDAQSWRLRYERIMREVGVATVEYEAASGRATWGMGAGKVLGEDVARISSLDEWLEHIAPDERGLVEATWSSVASGETWASEQSYTLMRTDGEPLRVRERLACVRGADDSVEMVVGMLRPEPLESGDG | failed
MTVSGPGTPEPRPATPGASSVEQLRKEGNELFKCGDYGGALAAYTQALGLDATPQDQAVLHRNRAACHLKLEDYDKAETEASKAIEKDGGDVKALYRRSQALEKLGRLDQAVLDLQRCVSLEPKNKVFQEALRNIGGQIQEKVRYMSSTDAKVEQMFQILLDPEEKGTEKKQKASQNLVVLAREDAGAEKIFRSNGVQLLQRLLDMGETDLMLAALRTLVGICSEHQSRTVATLSILGTRRVVSILGVESQAVSLAACHLLQVMFDALKEGVKKGFRGKEGAIIVDPARELKVLISNLLDLLTEVGVSGQGRDNALTLLIKAVPRKSLKDPNNSLTLWVIDQGLKKILEVGGSLQDPPGELAVTANSRMSASILLSKLFDDLKCDAERENFHRLCENYIKSWFEGQGLAGKLRAIQTVSCLLQGPCDAGNRALELSGVMESVIALCASEQEEEQLVAVEALIHAAGKAKRASFITANGVSLLKDLYKCSEKDSIRIRALVGLCKLGSAGGTDFSMKQFAEGSTLKLAKQCRKWLCNDQIDAGTRRWAVEGLAYLTFDADVKEEFVEDAAALKALFQLSRLEERSVLFAVASALVNCTNSYDYEEPDPKMVELAKYAKQHVPEQHPKDKPSFVRARVKKLLAAGVVSAMVCMVKTESPVLTSSCRELLSRVFLALVEEVEDRGTVVAQGGGRALIPLALEGTDVGQTKAAQALAKLTITSNPEMTFPGERIYEVVRPLVSLLHLNCSGLQNFEALMALTNLAGISERLRQKILKEKAVPMIEGYMFEEHEMIRRAATECMCNLAMSKEVQDLFEAQGNDRLKLLVLYSGEDDELLQRAAAGGLAMLTSMRPTLCSRIPQVTTHWLEILQALLLSSNQELQHRGAVVVLNMVEASREIASTLMESEMMEILSVLAKGDHSPVTRAAAACLDKAVEYGLIQPNQDGE | failed
MSLNERILLVDDDYSLLNTLKRNLSFDFEVTTCESGPEALACIKKSDPFSVIMVDMRMPGMEGTEVIQKARLISPNSVYLMLTGNQDLTTAMEAVNEGQVFRFLNKPCQMSDIKAAINAGIKQYDLVTEGHHHHHH | not failed
MQTSNITNHERNDSSWMSTVKSTTEVSWNKLSFCDILLKIITFGIYSPHETLAEKHSEKKLMDSFSPSLSQDKMDGEFAHANIDGISIRLCLNKGICSVFYLDGDKIQSTQLSSKEYNNLLSSLPPKQFNLGKVHTITAPVSGNFKTHKPAPEVIETAINCCTSIIPNDDYFHVKDTDFNSVWHDIYRDIRASDSNSTKIYFNNIEIPLKLIADLINELGINEFIDSKKELQMLSYNQVNKIINSNFPQQDLCFQTEKLLFTSLFQDPAFISALTSAFWQSLHITSSSVEHIYAQIMSENIENRLNFMPEQRVINNCGHIIKINAVVPKNDTAISASGGRAYEVSSSILPSHITCNGVGINKIETSYLVHAGTLPSSEGLRNAIPPESRQVSFAIISPDV | not failed
MASRSDSAALSRDVPGAAFCGSRDMQKKHLFLALLVTALWGLNFPITKLGLASIDPLLLTALRFTLAALPWVFLVPRPPVAFAWLAAYGLIFGVAMWALINLGIDHGVAPGTAALLIQFSAFFSLGWGVLLFGERLRLQQVLATAIALWGLLRIIGDSPGHATSLGYALLLVSAFSWSVGNVIIKRCGVREVFAFVVWASLFAPLPLLALTWISHGAAPFLQLAGQVSAGAALSLMFQVYAATLFCYWGWNLLLREYPVSRVAPLSLLIPVFGMAGSVLILGQRLGAEEGISMGLILLALAVGQFDWRRLITLGRRSL | failed
MTEVALSPRGRSVAYTVRRLSPGQAPAPRARLYVARTSGRDDPRLLFQDEHDIRAPAWHPDGTHLAFVRPVNGTPQVFVIPLNGGVPYRLTDTPHGAQAPQWGPDGERLLFASHVPEPAVRRQTARRPPTERPGRTASDTIRTPPPDTLLVLRHDRTLRPVDTLAVDADGRPQTPTDTTDTLHVPRHSSLSDTLTAPPVRRLAGLSPDSLQAVFDRFRLRSDTTTVAVRPDTAAAPNGTLAQVRRWMHQNRRSGTALVSSRLEIQGERQLRPTPTYRHHYVVDLPAGIRSGRPPRPTPRLLTGGYRSYGQADWLPGGEQVVVSGMPATNESPDRVRRRNLYVADLNTPRLRRLLRIENHTLTSPSVTTDGSTVAFRVESLAPSSDAPAEIGLFALDGRSQPRILTSALDRDVTSVTWAPDGWYLYTTAPSEGGRPLFRFTPFAQDTTDGAPQAPSPTLPTDRATSRNTFTFDSTMVRPAEAEQLTSAARAIHSFDVTDATAVYASTDPTTPSALYANTVSFNNERPLATPNAEWLSRRQVAPPDRMTVSHDSLAVTGWVTRPVAFADSLRHPLFVQARGGPPALSAPYTPEAWFERQYLTGRGLGLVEGFPRGSAGFGTAFRRANDKNWGPGPARDILALADSAAALSWTDSTRVALGGTGYGGTLTAWILGRTNRFAAAVALNGVYDLPALLGGGRAWRLVPAEFGGYPWDGVPPRSLGDPVLSSRLPSPDSTAQTPWTALHRNSPLTYAHRIRTPLLLMQGGADRRVGPSQGERLYKRLKILDRPVEYVRYPEVGHDMSASASPRQRLDRLVRTYEFLARFLEPPAPPTAPQSPPRP | failed
MTTLSTKQKQFLKGLAHHLNPVVMLGGNGLTEGVLAEIENALNHHELIKVKVAGADRETKQLIINAIVRETKAAQVQTIGHILVLYRPSEEAKIQLPRK | not failed
MFDFSIVTNWIHEMLLSVMPEGWAIFIECIAVGVCIVALYAILAIVLIYMERKVCGFFQCRLGPNRVGKWGSIQVICDVLKMLTKEIFTPKDADRFLYNLAPFMVIIASFLTFACIPFNKGAEILNFNVGVFFLLAASSIGVVGILLAGWGSNNKFSLIGAMRSGAQIISYELSVGMSIMTMVVLMGTMQFSEIVEGQADGWFIFKGHIPAVIAFIIYLIAGNAECNRGPFDLPEAESELTAGYHTEYSGMHFGFFYLAEYLNLFIVASVAATIFLGGWMPLHIIGLDGFNAVMDYIPGFIWFFAKAFFVVFLLMWIKWTFPRLRIDQILNLEWKYLVPISMVNLLLMACCVAFGFHF | failed
MSLSAMPAALSFAGLAGWAEEDHLAALNAFRAGCGVSKDPAAARVCGLAKATKDLDVSGAKAFIEANFRVEAVDGGGDGLLTAYFAPQYEARMSRNAEFSAPLRGLPADLVVLDLGPFEPALVGKKITGHVEGSTFVPYPDRAEIEATPSDKPLAWMRPEELFFLQIQGSGVLVLPDGRRVRAVFAGTNGKPFVGIAIAMRDKGLLPDNNTSADAIRTWLAEHRGPEADAIMRLNPRYVFFRTVPDDGKEPAGAAGVALPPGRAIAVDPGYHAYGGFYWLDAAAPKLVGAFPVYRRAVTALDTGGAIKGEVRADLYMGSGAVAGVEAGRVRHTLRLYRLTPNPEGHHHHHH | not failed
MKDSQEVTHFSAARSSKWTQHDTYWLLSLFGTAVGAGILFLPINIGLGGFWPLVLMAVLAFPMTYLSHRGLARFVLSSRRPNADFTDVVEEHFGQNAGRLISLLYFLSIFPILLIYGVGLTNTVDSFLVNQADMVSPPRALLSGALVFGLIAIMLSGEKIMLRAFAIMVYPLAAILALLSLYLIPYWSMPSFDFPQTSDFLHTVWLAVPVVVFSFSHAAAISSFANIQRRHYGEQADQKSEQILRHTSVVLILFVLLFVFSCVLALSPQALQEAKAQNISVLTYLANVTDNPFIATLGPLVAFIAITSSFLGHFLGARESLSGLLTKNLGVSLRLAERLTIGFLFVTIWIAAILNPSILGMMEALSGPVIAMILFIMPMIAVFKVPALREHQKRFSTFFVLLVGLLAVSALLYSLLR | failed
MGTVSKALSLLALFNHGRLEMGLSELTRLSGMNKATVYRMMTELQAAGFVEQMNGDRAYRLGPEVLRLAALREAAVPLLSVSRDVLRRLCDETGETSHMSIQRNGQLTTLTHAYSSHHGTRVAMEDAEILSLHATGSGLAFLAFSSEEVVEHALSAPLIKHTPQTETDPARLRQALAEAQQSGVAESVGGFEADVHSHAAPIFGADQRPIGALAVAAPVSRMTAELKSRVRAALKEAALDLTQRTGGFCPPGYPGAA | failed
CSPVRERRLEHQLEPGDTLAGLALKYGVTMEQIKRANRLYTNDSIFLKKTLYIPILTEPRDLFN | not failed
MLNADVKETIHYVDENGKELAGTYTKDVHYTRTATVHYDQNGNATVTYGEWKADGSFDKVANPDIDGYFTLDKGVDGKTVTDPQNQADFVENVIYYKTDQNVTPLEHHHHHH | not failed

Reference: a protein production outcome set (Wang et al. 2014)
